Test results: patent US20240059797A1 (GRITSTONE BIO, published 2024)

What was measured:
[1] = target: HLA-A*02:01_… (HLA-PEPTIDE target G8), recombinant complex (human, enzymatically biotinylated (BirA) for screening and functional assays); assay: scFv PPE ELISA
[2] = target: HLA-A*01:01_… (HLA-PEPTIDE target G10), recombinant biotinylated complex (human, enzymatically biotinylated (BirA)); assay: scFv PPE ELISA

| Binder | fold selective binding to target pHLA over minipool of negative control pHLAs [1] [fold] | fold selective binding to target pHLA over minipool of negative control pHLAs [2] [fold] |
| --- | --- | --- |
| G8(5F02) scFv (scFv, V domains shown) VH: QVQLVQSGAEVKKPGASVKVSCKASGYTFTGYYIHWVRQAPGQGLEWMGVINPSGGSTTYAQKLQGRVTMTRDTSTSTVYMELSSLRSEDTAVYYCARDRDSSWTYYYYGMDVWGQGTTVTVSS VL: EIVMTQSPATLSVSPGERATLSCRASQSVGNSLAWYQQKPGQAPRLLIYGASTRATGIPARFSGSGSGTEFTLTISSLQSEDFAVYYCQQYGSSPYTFGQGTKVEIK | ≥ 3 |  |
| G8(2B05) scFv (scFv, V domains shown) VH: EVQLLESGGGLVQPGGSLRLSCAASGFDFSIYSMNWVRQAPGKGLEWVSAISGSGGSTYYADSVKGRFTISRDNSKNTLYLQMNSLRAEDTAVYYCASNGNYYGSGSYYNYWGQGTLVTVSS VL: DIQMTQSPSSLSASVGDRVTITCRASQSISRWLAWYQQKPGKAPKLLIYAASSLQSGVPSRFSGSGSGTDFTLTISSLQPEDFATYYCQQYSTYPITIGQGTKVEIK | ≥ 3 |  |
| G8(5C03) scFv (scFv, V domains shown) VH: QVQLVQSGAEVKKPGASVKVSCKASGYTFTSYYMHWVRQAPGQGLEWMGWMNPNSGNTGYAQKFQGRVTMTRDTSTSTVYMELSSLRSEDTAVYYCARGLLGFGEFLTYGMDVWGQGTLVTVSS VL: DIQMTQSPSSLSASVGDRVTITCRASQGISNWLAWYQQKPGKAPKLLIYAASTLQSGVPSRFSGSGSGTDFTLTISSLQPEDFATYYCQQTYSTPWTFGQGTKLEIK | ≥ 3 |  |
| G8(2E06) scFv (scFv, V domains shown) VH: QVQLVQSGAEVKKPGASVKVSCKASGYTLTTYYMHWVRQAPGQGLEWMGWINPNSGGTNYAQKFQGRVTMTRDTSTSTVYMELSSLRSEDTAVYYCARAVYYDFWSGPFDYWGQGTLVTVSS VL: DIQMTQSPSSLSASVGDRVTITCRASQGISNSLAWYQQKPGKAPKLLIYAASSLQSGVPSRFSGSGSGTDFTLTISSLQPEDFATYYCQQANSFPWTFGQGTKLEIK | ≥ 3 |  |
| G8(2C10) scFv (scFv, V domains shown) VH: QVQLVQSGAEVKKPGASVKVSCKASGYTFTSYYMHWVRQAPGQGLEWMGWINPYSGGTNYAQKFQGRVTMTRDTSTSTVYMELSSLRSEDTAVYYCAKGGIYYGSGSYPSWGQGTLVTVSS VL: DIQMTQSPSSLSASVGDRVTITCRASQDVSTWLAWYQQKPGKAPKLLIYAASSLQSGVPSRFSGSGSGTDFTLTISSLQPEDFATYYCQQSHSTPQTFGQGTKVEIK | ≥ 3 |  |
| G10(1B07) scFv (scFv, V domains shown) VH: QVQLVQSGAEVKKPGASVKVSCKASGYTFTSYYMHWVRQAPGQGLEWMGIIHPGGGTTSYAQKFQGRVTMTRDTSTSTVYMELSSLRSEDTAVYYCARDKVYGDGFDPWGQGTLVTVSS VL: DIQMTQSPSSLSASVGDRVTITCRASQSISRWLAWYQQKPGKAPKLLIFDASRLQSGVPSRFSGSGSGTDFTLTISSLQPEDFATYYCQQAEAFPYTFGQGTKVEIK |  | ≥ 3 |
| G10(1A07) scFv (scFv, V domains shown) VH: EVQLLESGGGLVKPGGSLRLSCAASGFTFSSYWMSWVRQAPGKGLEWVSGISARSGRTYYADSVKGRFTISRDDSKNTLYLQMNSLKTEDTAVYYCARDQDTIFGVVITWFDPWGQGTLVTVSS VL: DIQMTQSPSSLSASVGDRVTITCRASQGISNYLAWYQQKPGKAPKLLIYAASSLQGGVPSRFSGSGSGTDFTLTISSLQPEDFATYYCQQYFTTPYTFGQGTKLEIK |  | ≥ 3 |
| G8(2C11) scFv (scFv, V domains shown) VH: QVQLVQSGAEVKKPGASVKVSCKASGYTFTSYAMNWVRQAPGQGLEWMGWINPNSGGTNYAQKFQGRVTMTRDTSTSTVYMELSSLRSEDTAVYYCARDPFWSGHYYYYGMDVWGQGTTVTVSS VL: not shown | ≥ 3 |  |
| G8(5G08) scFv (scFv, V domains shown) VH: QVQLVQSGAEVKKPGASVKVSCKASGYTFTSNYMHWVRQAPGQGLEWMGWMNPNSGNTGYAQKFQGRVTMTRDTSTSTVYMELSSLRSEDTAVYYCARGLYGDYFLYYGMDVWGQGTTVTVSS VL: not shown | ≥ 3 |  |
| G8(2E04) scFv (scFv, V domains shown) VH: QVQLVQSGAEVKKPGSSVKVSCKASGGTFSSYGVSWVRQAPGQGLEWMGWISPYSGNTDYAQKFQGRVTITADESTSTAYMELSSLRSEDTAVYYCARGLYYMDVWGKGTTVTVSS VL: DIQMTQSPSSLSASVGDRVTITCRASQSISSWLAWYQQKPGKAPKLLIYDASNLETGVPSRFSGSGSGTDFTLTISSLQPEDFATYYCQQSYSTPLTFGGGTKLEIK | ≥ 3 |  |
| G8(1C01) scFv (scFv, V domains shown) VH: QVQLVQSGAEVKKPGASVKVSCKASGGTFSSHAISWVRQAPGQGLEWMGVIIPSGGTSYTQKFQGRVTMTRDTSTSTVYMELSSLRSEDTAVYYCARGDYYDSSGYYFPVYFDYWGQGTLVTVSS VL: DIQMTQSPSSLSASVGDRVTITCRASQNIYTYLNWYQQKPGKAPKLLIYDASNLETGVPSRFSGSGSGTDFTLTISSLQPEDFATYYCQQANGFPLTFGGGTKVEIK | ≥ 3 |  |
| G10(1F06) scFv (scFv, V domains shown) VH: QVQLVQSGAEVKKPGASVKVSCKASGYTFIGYYMHWVRQAPGQGLEWMGMIGPSDGSTSYAQKFQGRVTMTRDTSTSTVYMELSSLRSEDTAVYYCARDSSGLDPWGQGTLVTVSS VL: DIQMTQSPSSLSASVGDRVTITCRASQSISNYLNWYQQKPGKAPKLLIYKASSLESGVPSRFSGSGSGTDFTLTISSLQPEDFATYYCQQSYIIPYTFGQGTKLEIK |  | ≥ 3 |
| G8(4F05) scFv (scFv, V domains shown) VH: QVQLVQSGAEVKKPGASVKVSCKASGYTFSNMYLHWVRQAPGQGLEWMGWINPNTGDTNYAQTFQGRVTMTRDTSTSTVYMELSSLRSEDTAVYYCARGLYGDYFLYYGMDVWGQGTKVTVSS VL: DIQMTQSPSSLSASVGDRVTITCRASQGISNYLAWYQQKPGKAPKLLIYAASTLQSGVPSRFSGSGSGTDFTLTISSLQPEDFATYYCQQSYSTPLTFGGGTKVEIK | ≥ 3 |  |
| G10(1E12) scFv (scFv, V domains shown) VH: QVQLVQSGAEVKKPGASVKVSCKASGYIFTGYYMHWVRQAPGQGLEWMGMIGPSDGSTSYAQKFQGRVTMTRDTSTSTVYMELSSLRSEDTAVYYCAREDDSMDVWGKGTTVTVSS VL: not shown |  | ≥ 3 |
| G10(4E12) scFv (scFv, V domains shown) VH: QVQLVQSGAEVKKPGASVKVSCKASGYTFTGYYMHWVRQAPGQGLEWMGMIGPSDGSTSYAQRFQGRVTMTRDTSTSTVYMELSSLRSEDTAVYYCAREEDGMDVWGQGTTVTVSS VL: DIQMTQSPSSLSASVGDRVTITCRASQGISTYLAWYQQKPGKAPKLLIYDASSLQSGVPSRFSGSGSGTDFTLTISSLQPEDFATYYCQQYYSYPWTFGQGTRLEIK |  | ≥ 3 |
